Test results from the supplement of paper PMC10567573.

B1: OAS1 (parent)
chain: LTVYAWERGSMKTHFNTAQGFRTV

Variants of: B1
Assay: protein stability index of a GFP-peptide fusion (GPS, HEK-293T) (PSI 1-6); higher = more stable
Settings: c terminus: a fixed tail appended
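Also: lentivirally expressed fusions sorted by FACS into six bins by GFP to DsRed ratio, PSI derived from sequencing read proportions per bin multiplied by bin number.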

Protein stability index: each site, then its substitutions
A5: K 1.63, N 2.29, T 2.75, D 2.59, G 2.14, C 3.68
Q19: L 3.4, Y 3.25, R 2.22, A 2.23, E 2.52, V 3.84, K 2.43, G 2.64, T 2.88, F 3.35, H 2.65, W 1.62, P 3.02, S 2.63, N 2.92
R8: Q 2.56, W 2.69, I 2.15, S 2.55, C 1.85, P 4.46, F 2.26, L 3.07, G 2.33, E 2.4, T 3.1, Y 3.38, N 2.65
S10: D 1.75, H 2.71, R 2.08, P 1.54, C 2.82, M 2.46, V 2.62, L 2, F 2.93
V24: G 1.73, M 1.96, P 2.64, A 2.04, N 2.84, E 2.51, T 1.8, Y 2.51, L 1.68, I 3.42, C 2.83, S 3.01, F 2.35
L1: N 2, W 2.79, K 2.17, H 2.13, F 2.48, P 2.14, R 2.28, Y 2.19, D 2.26, G 2.31, I 1.71, E 2.17, A 2.32, Q 1.79
V3: Y 2.7, L 2.49, R 2.46, S 2.12, E 2.09, M 2.16, N 2.05, W 2.92, K 2.12, A 2.24, G 1.91, Q 2.09, H 2.36, P 1.77
F15: S 2.49, M 2.26, L 2.21, E 2.27, R 2.93, I 2.88, D 2.47, A 2.35, G 1.61, C 1.96, K 2.01, P 1.52, V 2.08, T 1.9
R22: G 1.45, N 2.38, M 2.53, Y 3.17, V 2.33, E 2.82, I 1.73, F 1.87, L 3.28, T 2.44, H 3.33, W 1.93, A 3.1
H14: I 2.29, V 3.57, G 1.69, R 3.04, N 1.74, D 2.33, K 2.35, Q 1.75, W 2.76, M 3.15, S 2.44
M11: H 2.31, K 2.38, Q 2.14, C 3.65, P 1.85, T 2.09, I 1.97, F 2.49, L 1.51, Y 3.28, G 3.37, N 2.06, S 2.19, D 2.21, A 1.75
W6: R 1.44, F 2.89, M 3.17, V 2.29, D 1.87, H 2.2, T 2.45, C 1.61, Y 1.9, Q 1.66, S 1.59, L 2.63, E 2.23, A 1.86, N 2.06
E7: G 2.18, K 2.28, W 1.98, A 3.15, Y 1.92, P 2.46, R 2.05, T 3.32, S 2.76, V 3.45, Q 3.28, H 2.41, N 1.99, L 3.71, I 2.63
